Earlier results on 1 substance are cited in US6468959B1, “Peroral dosage form for peptide containing medicaments, in particular insulin” (ALFATEC-Pharm GmbH, priority 1991, dated 2002).

The conditions of this data set: weakly acid environments of pH 3 to 4 and at pH 7 to 8.

With insulin, the solubility result is “soluble” and the stability entry was “adequately stable”.
